T1: GFP-FoxM1B 1-688 protein (human, UniProt Q08050 1-703)
T1 construct: C-terminal truncation; construction not described; not shown: GFP
T1 sequence: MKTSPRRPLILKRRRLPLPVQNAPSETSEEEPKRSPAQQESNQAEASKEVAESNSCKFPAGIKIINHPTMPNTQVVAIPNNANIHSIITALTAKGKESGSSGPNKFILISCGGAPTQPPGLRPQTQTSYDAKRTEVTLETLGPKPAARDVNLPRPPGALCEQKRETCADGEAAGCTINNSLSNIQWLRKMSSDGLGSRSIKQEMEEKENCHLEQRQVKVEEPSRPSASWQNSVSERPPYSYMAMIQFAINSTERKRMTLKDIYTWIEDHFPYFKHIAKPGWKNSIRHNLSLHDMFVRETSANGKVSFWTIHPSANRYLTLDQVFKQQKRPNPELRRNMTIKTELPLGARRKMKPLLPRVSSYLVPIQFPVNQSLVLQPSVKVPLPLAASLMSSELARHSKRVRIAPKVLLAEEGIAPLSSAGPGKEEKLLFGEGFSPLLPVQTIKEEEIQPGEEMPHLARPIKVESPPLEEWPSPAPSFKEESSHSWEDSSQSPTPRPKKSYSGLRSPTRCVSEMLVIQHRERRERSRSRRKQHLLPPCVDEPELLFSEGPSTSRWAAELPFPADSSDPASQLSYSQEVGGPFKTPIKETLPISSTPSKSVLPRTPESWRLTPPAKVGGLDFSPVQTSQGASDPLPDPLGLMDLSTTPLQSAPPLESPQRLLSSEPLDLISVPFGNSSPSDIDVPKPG

B1: HA-p19^ARF protein, wild type (other, UniProt Q64364 1-169, looked up, not shown: small tags and cut ends)
chain: MGRRFLVTVRIQRAGRPLQERVFLVKFVRSRRPRTASCALAFVNMLLRLERILRRGPHRNPGPGDDDGQRSRSSSSAQLRCRFELRGPHYLLPPGARRSAGRLPGHAGGAARVRGSAGCARCLGSPAARLGPRAGTSRHRAIFAFRWVLFVFRWVVFVYRWERRPDRRA
notes: also called HA tagged p19; WT p19
B2: CMV T7-FoxM1B L641A mutant protein (other, not shown: small tags and cut ends)
chain: MKTSPRRPLILKRRRLPLPVQNAPSETSEEEPKRSPAQQESNQAEASKEVAESNSCKFPAGIKIINHPTMPNTQVVAIPNNANIHSIITALTAKGKESGSSGPNKFILISCGGAPTQPPGLRPQTQTSYDAKRTEVTLETLGPKPAARDVNLPRPPGALCEQKRETCADGEAAGCTINNSLSNIQWLRKMSSDGLGSRSIKQEMEEKENCHLEQRQVKVEEPSRPSASWQNSVSERPPYSYMAMIQFAINSTERKRMTLKDIYTWIEDHFPYFKHIAKPGWKNSIRHNLSLHDMFVRETSANGKVSFWTIHPSANRYLTLDQVFKQQKRPNPELRRNMTIKTELPLGARRKMKPLLPRVSSYLVPIQFPVNQSLVLQPSVKVPLPLAASLMSSELARHSKRVRIAPKVLLAEEGIAPLSSAGPGKEEKLLFGEGFSPLLPVQTIKEEEIQPGEEMPHLARPIKVESPPLEEWPSPAPSFKEESSHSWEDSSQSPTPRPKKSYSGLRSPTRCVSEMLVIQHRERRERSRSRRKQHLLPPCVDEPELLFSEGPSTSRWAAELPFPADSSDPASQLSYSQEVGGPFKTPIKETLPISSTPSKSVLPRTPESWRLTPPAKVGGLDFSPVQTSQGASDPLPDPLGAMDLSTTPLQSAPPLESPQRLLSSEPLDLISVPFGNSSPSDIDVPKPGSPEPQVSGLAANRSLTEGLVLDTMNDSLSKILLDISFPGLDEDPLGPDNINWSQFIPELQ
notes: also called CMV FoxM1B L641A

Legend:
GFP-FoxM1B 1-688 protein = molecular target: T1, GFP-FoxM1B 1-688 protein; assay: Co-IP from transfected U2OS extracts
Cdk2 protein = Cdk2 protein (UniProt P24941 1-298); assay: Co-IP from transfected U2OS extracts with Cdk2 antibody, Western blot with T7 tag antibody

Binder	binding result (GFP-FoxM1B 1-688 protein)	binding result (Cdk2 protein)
B1	no binding	
B2		no binding

Reference: patent US20050032692A1 (BOARD OF TRUSTEES OF THE UNIVERSITY OF ILLINOIS, published 2005)
